The series in a line: yeast display, Sf9 membrane polyspecificity reagent, FACS + sequencing; frameworks hold sequencing errors. In a few lines:
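In a synthetic yeast display library (Saccharomyces cerevisiae BJ5465), nanobody expression was induced with galactose for 36–48 hours. FACS gates were set low and high (top ~1%) using anti-HA fluorescence for expression and streptavidin fluorescence for binding of the Sf9 membrane reagent. Each polyreactivity label is drawn from the gate of origin.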
For “QVQLVESGGGLVQAGGSLRLSCAASGNIFAWYAMGGYRQAPGKERELVADISSRGGSTSYADSVKGRFTISRDNAKKTVYLQMNSLKPEDTAVYYCAASYYYPFEYYYWGQGTQVTVSS”, the “polyreactivity (PSR sort gate)” value is on record as “low polyreactivity”.
Consider “QVQLVESGGGLVQAGGSLRLSCAASGNIFAWYAMGWYRQAPGKERELDADISSRGGSTYYADSVKGRFTISRDNAKNTVYLQMNSLKPEDTAVYYCAAVWYWTQDYDYWGQGTQVTVSS”, for which the “polyreactivity (PSR sort gate)” value is reported as “low polyreactivity”.
Next, “QVQLVESGGGLVQAGGSLRLSCAASGNIFDEYTMGWYRQAPWKERELVAAINSGGSTDYADSVKGRFTISRDNAKNTVYLQMNSLKPEDTAVYYCARDVWPTKIQQQPGYGRGEYWGQGTQVTVSS”: “low polyreactivity”.
Next, “QVQLVESGGGLVQAGGSLRLSCAASGNIFDLYAMGWYRQAPGKERELVAAITRSSSRTYYADSVKGRFTISRDNAKNTVYLQMNSLKPEDTAVYYCRAKQVNRFDYWGQGTQVTVSS”: “high polyreactivity”.
In the case of “QVQLVESGGGLVQAGGSLRLSCAASGNIFESYGMGWYRQAPGKERELVATINTSSGSTYYADSVKGRFTISRDNAKNTVYLQMNILKPEDTAVYYCAAEWYPYPWGYGYWGQGTQVTVSS”, the “polyreactivity (PSR sort gate)” value is reported as “low polyreactivity”.
Regarding “QVQLVESGGGLVQAGGSLRLSCAASGNIFESYGMGWYRQAPGKERELVATINTSSGSTYYADSVKGRFTISRDNAKNTVYLQMNSLKPEDTAVYYCAARFDSFWVEYDYWGQGTQVTVSS”, the “polyreactivity (PSR sort gate)” value is listed as “low polyreactivity”.
Next, “QVQLVESGGGLVQAGGSLRLSCAASGNIFESYGMGWYRQAPGKERELVATINTSSGSTYYADSVKGRFTISRDNAKNTVYLQMNSLKPEDTAVYYCAVEGDYWYVSMYYWGQGTQVTVSS”: “low polyreactivity”; “QVQLVESGGGLVQAGGSLRLSCAASGNIFFRNARGWYRQAPGKERELVAAITWSGGSTYYADSVKGRFTISRDNAKNTVFLQMNSLKPEDTAVYYCAADAGQYFTYSGDDNLDYWGQGTQVTVSS”: “low polyreactivity”.
Take “QVQLVESGGGLVQAGGSLRLSCAASGNIFFSNAMGWYRQAPGKERELGASISQSGGSTYYADAVKGRFTISRDNAKNTVYLQMNSLKPEDTAVYYCAATQVRRGPAWGRDYWGQGTQETVSS”: the “polyreactivity (PSR sort gate)” value was “low polyreactivity”.
Next, “QVQLVESGGGLVQAGGSLRLSCAASGNIFFTYAMGWYIQEPGKERELVAAITSGGRTYYADSVKGRFTISRDNAKNTLHLQMNSLKPEDTAVYYCAAYYKYLGYGYWGQGTQVTVSS”: “high polyreactivity”.
Regarding “QVQLVESGGGLVQAGGSLRLSCAASGNIFGKNVMGWYRQAPGKEREFVAAITSRGGRTNYADSVKGRFTISRDNAKNTVYLQMNSLKPEDTAVYYCAKDKNYPSGYGYWGQGTQVTVSS”, the “polyreactivity (PSR sort gate)” value was “high polyreactivity”.
In the case of “QVQLVESGGGLVQAGGSLRLSCAASGNIFGLNAMGWYTQAPGKEREFVAAITKTGGSTYYADSVKGRFTISRDNAKNTVYLQMNSLKPEDTAVYYCAARGLPRGYPYEYGYWGQVTQVTVSS”, the “polyreactivity (PSR sort gate)” value is “high polyreactivity”.
Turning to “QVQLVESGGGLVQAGGSLRLSCAASGNIFGQYAMGWYRQAPGKEREFVAAITWSGGSTYYADSVKGRFTISRDNAKNTVYLQMNSLKPEDTAVYYCAADYGKTHRYDYDYWGQGTQVTVSS”, the “polyreactivity (PSR sort gate)” value is listed as “low polyreactivity”.
Next, “QVQLVESGGGLVQAGGSLRLSCAASGNIFGTYAMGWSRQAPRKERELVATISNDDRTNYADSVKGRFTISRDNAKNTVYFQMNSLKPADTAVYYCAVEYPSIAYRKSSKTFDYWGQGTQVTVSS”: “low polyreactivity”; “QVQLVESGGGLVQAGGSLRLSCAASGNIFGVYAMGWYRQAPGKERELVAAIRYSTVSTYYADSVKGRFTISRDKAKNTVYLQMNSLKPQDTAVYNSAAHRYYWSLYGYDYWGHGTQVTVSS”: “high polyreactivity”.
As for “QVQLVESGGGLVQAGGSLRLSCAASGNIFGVYTMGWYRQAPGKERELVAAISDGGSTYYADSVKVRFTISRDNAKNTVYLQMNSLKPEDTAVYYCAASKIGYWGDYFRYYYWGQGTQVTVSS”, the “polyreactivity (PSR sort gate)” value is “low polyreactivity”.
Next, “QVQLVESGGGLVQAGGSLRLSCAASGNIFGYYVMGWYRQAPGKERELVAAITWSAGTTNYADSVKGRFTISRDNAKNTVYLQMNSLKPEDTAVYYCAVTWWYQDYDLTWYLYDYWGQGTQVTVSS”: “low polyreactivity”; “QVQLVESGGGLVQAGGSLRLSCAASGNIFHYYPMGWYRQAPGKERELVATISWRGDGTNYADSVKGRFTISRDNEKNTVYLQMISLKPEDTAVYYCAARGVWPDYDYWGQGTQVTVSS”: “low polyreactivity”.
Next, “QVQLVESGGGLVQAGGSLRLSCAASGNIFKGYAMGWYRQAPGKERALVAAISKSGGSTYDADSVKGRFTISRDNAKNTVYLQMNSLKPDDTAVYYCNARRKYGGGQTINGYDYWGQGTQVTVSS”: “high polyreactivity”; “QVQLVESGGGLVQAGGSLRLSCAASGNIFKVNTMGWYRQAPGKERELVAAINRSGGRPYYADSVKGSFTISRDNAKNTVYLQMNSLKPEDTAVYYCATRVHKSTHGYDYWGQGTQVTVSS”: “high polyreactivity”; “QVQLVESGGGLVQAGGSLRLSCAASGNIFLDYAMGWYRQAPGKERELVAANTSRVDDTYYADSVKGRFTISLDNAKNTVYLQMTSLKPEFTAVDYCAADYSVTLLIGGYYWFYAFDYWGQGTQVTVSS”: “low polyreactivity”.
Turning to “QVQLVESGGGLVQAGGSLRLSCAASGNIFLYYAMGWYRQAPGKEMELVAAISWSGSSTYYADSVKGRFTISRDNAKNTVYLQMNSLKPEDTAVYYCNKRATRSRRRGYWGQGTQVTVSS”, the “polyreactivity (PSR sort gate)” value was “low polyreactivity”.
Next, “QVQLVESGGGLVQAGGSLRLSCAASGNIFLYYAMGWYRQAPGKERELDADIDSSGASTYYADSVKGRFTISRDNAKNNVYLQMNSLKPEDTAVYYCAAEFHWWYAGYDYGYWGQGTQVTVSS”: “low polyreactivity”; “QVQLVESGGGLVQAGGSLRLSCAASGNIFLYYAMGWYRQAPGKERELVADIDSSGASTYYADSVKGRFTISRDNAKNTVYLEMNSLKPEDTAVYYCAAEFHWWYAGYDYGYWGQGTQVTVSS”: “low polyreactivity”.
“QVQLVESGGGLVQAGGSLRLSCAASGNIFLYYAMGWYRQAPGKERELVADIDSSGASTYYADSVKGRFTISRDNAKNTVYLQMNSLKPEDTAVYYCAARGRKNQRRYGYWGQGTQVTVSS”: the “polyreactivity (PSR sort gate)” value is on record as “low polyreactivity”.
On to “QVQLVESGGGLVQAGGSLRLSCAASGNIFPAYAMGWYRQAPGKERELVATISRRGGGTYYADSVKGRFTISRDNAKNTVYLQMNSLKPEDTAVYYCNVAGWTSAYDYWGQGTQVTVSS”, for which the “polyreactivity (PSR sort gate)” value is on record as “low polyreactivity”.
Next, “QVQLVESGGGLVQAGGSLRLSCAASGNIFRVYDMGWYRQAPGKERELVAVIRWSSGRTYYADSVKGRFTISRDNAKNTVYLQMNSLKPEDTAVYYCATKLWRVPRNSHYDSYEYWGQGTQVTVSS”: “high polyreactivity”.
Next, “QVQLVESGGGLVQAGGSLRLSCAASGNIFRYYAMGWYRQAPGKERELVARISTGSSTYYADSVKGRFTISRDNAKNTVYLQMNSLKPEDTAVYYCAAANYRYRVPWFYYWGQGTQVTVSS”: “high polyreactivity”; “QVQLVESGGGLVQAGGSLRLSCAASGNIFRYYVMGWYRQAPGKEREFVAAITSSGGSTYYADSVKGRFTISRDNAKNTVYLQMNSLKPEDTAVYYCAKDYWDPGWAEYDYWGQGTQVTVSS”: “low polyreactivity”.
On to “QVQLVESGGGLVQAGGSLRLSCAASGNIFSYYAMGLYRPAPGKERELVAAIDWNGGTTYYADSVKGRFTISRDNAKNTVYLQMNSLKPEDTAVYYCAAAWYWYWFLFEGAPYDYWGQGTQVTVSS”, for which the “polyreactivity (PSR sort gate)” value was “high polyreactivity”.

These data come from the nanobody polyreactivity screen of Harvey et al. (2022).
